Laboratory results published in the RNAGym collection of RNA variant scans (doi:10.1073/pnas.2313332121).

B1: TPR t1 (parent)
chain: GACCAAUCUGCCCUCAGAGCUCGAGAACAUCUUCGGAUGCAGAGGAGGCAGGCUUCGGUGGCGCGAUAGCGCCAACGUCCUCAACCUCCAAUGCAUCCCACCACAUGAUGAUGCCUGAAGAGCCUUGGUUUUUUG

Variants of: B1
Test: polymerase ribozyme fitness, log enrichment relative to wild type (log ratio); higher = more active; in vitro selection for triplet polymerase activity
In short: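 Mutant libraries were PCR-built and transcribed for each subunit of a heterodimeric triplet polymerase ribozyme and selected for one round in triplicate at −7 °C, frozen, before gel excision of extended constructs and streptavidin-bead capture. Input and output libraries were Illumina-sequenced, keeping genotypes with ≥10 input reads and ≥1 read per output. Fitness is a logarithmic ratio of genotype to wild-type enrichment, in base 2, using inverse-variance-weighted replicate averages.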

Row | Variant | polymerase ribozyme fitness (log ratio)
1 | GACCAAUCUGCCCUCAGAGCUCGAGAACAUCUUCGGAUGCAGAGGAGGCCGGCUUCGGUGGUGCGAUAGCGCCAACGUCCUCAACCUCCAAUGCAUCCCACCACAUGAUGAUGCUUGAAGAGCCUUGGUUUUUUG [A50C C62U C115U] | -2.55
2 | GACCAAUCUGCCCUCAGAGCUCGAGAACAUCUUCGGAUGCAGAGGAGGCCGUCUUCGGUGGCGCGAUAGCGCCAACGUCCUCAACCUCCAAUGCAUCCCACCACAUGAUGAUGCCUGAAGAGCCUUGGUUUUUUG [A50C G52U] | -2.09
3 | GACCAAUCUGCCCUCAGAGCUCGAGAACAUCUUCGGAUGCAGAGGAGGCCGGCUUGGGUGGCGCGAUAGCGCCAACGUCCUCAACCUCCAAUGCAUCCCACCACUUGAUGAUGCCUGAACAGCCUUGGUUUUUUG [A50C C56G A105U G120C] | -2.11
4 | GACCAAUCUGCCCUCAGAGCUCGAGAACAUCUUCGGAUGCAGAGGAGGCCGGGUUCGGUGGCGCGAUAGCGCCAACGUCCUCAACUUUCAAUGCAUCCCACCACAUUAUGAUGCCUGAAGUGCCUUGGUUUUUUG [A50C C53G C86U C88U G107U A121U] | -5.3
5 | GACCAAUCUGCCCUCAGAGCUCGAGAACAUCUUCGGAUGCAGAGGAGGCCGGCUUCGGUGGCGCGAUAGCGCCAACGUCCUCAACCUCCAAUGCAUCCCACCACAUGAUGCUGCUUGAAGAGCCUUGGAUUUUUG [A50C A111C C115U U129A] | -6.02
6 | GACCAAUCUGCCCUCAGAGCUCGAGAACAUCUUCGGAUGCAGAGGAGGCCGGCUUCGGUCGCGCGAUAGCGCCAACGUCCUCAACCUCCAAUGCAUCCCACCACAUGAUGAUGCCUGAAGAGCCUUGGUUUUUUG [A50C G60C] | -1.73
7 | GACCAAUCUGCCCUCAGAGCUCGAGAACAUCUUCGGAUGCAGAGGAGGCCGGCUUCGGUGGAGCGAUAGCGCCAACGUCCUCAACCUCCAAUGCAUCACACCACAUGAUGUAGCCUGAAGAGCCUUGGUUUUUUG [A50C C62A C98A A111U U112A] | -6.58
8 | GACCAAUCUGCCCUCAGAGCUCGAGAACAUCUUCGGAUGCAGAGGAGGCCGGCUUCGGUGGCGCGAUAGCGCCAACGUCCUCAACCUCCAAUGCAUCCCACCACAUGAUGCUGCCUGAAGAGCCUUGGUUUUUUG [A50C A111C] | 0.0167
9 | GACCAAUCUGCCCUCAGAGCUCGAGAACAUCUUCGGAUGCAGAGGAGGCCGGCUUCGGUGCCGCGAUAGCGCCAACGUCCUCAACCUCCAAUGCAUCCCACCACAUGAUGAUGCCUGAAGAGCCUUGGUUUUUUG [A50C G61C] | -3.35
10 | GACCAAUCUGCCCUCAGAGCUCGAGAACAUCUUCGGAUGCAGAGGAGGCCGGCUUCGGUGGCGCGAUAGCGCCAACGUCCUCAACCUCCAAUGCAUCCCCCCACAUGAUGAUGCCUGAAGAGCCUUGGUUUUUUG [A50C A100C] | -1.68
11 | GACCAAUCUGCCCUCAGAGCUCGAGAACAUCUUCGGAUGCAGAGGAGGCCGCCUUCGGUGGCGCGAUAGCGCUAACGUCCUCAACCUCCAAUGCAUCCCACCACAUGAUGAUGCCUGAAGAGCCUUGGUUUUUUG [A50C G52C C73U] | -4.07
12 | GACCAAUCUGCCCUCAGAGCUCGAGAACAUCUUCGGAUGCAGAGGAGGCCGGCUUCGGUGGCGCGAUAGCGUCAACGUCCUCAACCUCCAAUGCAUCCCACCACAUGAUGAUGCCUGAAGAGCCUUGGUUUUUUA [A50C C72U G135A] | -1.52
13 | GACCAAUCUGCCCUCAGAGCUCGAGAACAUCUUCGGAUGCAGAGGAGGCCGGUUUCGGUGGCGCGAUAGCGCCAACGUCCUCAGCCUCCAAUGCAUCCCACCACAUGAUGAUGCCUGAAGAGCCUUGGUUUUUUG [A50C C53U A84G] | -0.439
14 | GACCAAUCUGCCCUCAGAGCUCGAGAACAUCUUCGGAUGCAGAGGAGGUAGGCUUCGGUGGCGCGAUAGCGCCAACGUCCUCAACCUCCAAUGCAUCCCACCACAUGAUGAUGCCUGAAGAGCCUUGGUUUCUUG [C49U U132C] | -0.889
15 | GACCAAUCUGCCCUCAGAGCUCGAGAACAUCUUCGGAUGCAGAGGAGGCCGGCUUCGGUGGCGCGAUAGCGCCAACGUCCUCAACCUACAAUGCAUCCCACCACAUGAUGAUGCCUGAAGAGCCUUGGUUUUUUG [A50C C88A] | -1.03
16 | GACCAAUCUGCCCUCAGAGCUCGAGAACAUCUUCGGAUGCAGAGGAGGCCGGCUUCGGUCGCGCGAUAGCGCCAACGUCCGCAACUUCCAAUGCAUCCCACCACAUGAUGAUGCCUGAACAGCCUUGGUUUUUUG [A50C G60C U81G C86U G120C] | -1.06
17 | GACCAAUCUGCCCUCAGAGCUCGAGAACAUCUUCGGAUGCAGAGGAGGCCGGCUUCGGUGGCGCGAUAGCGCCAACGUCCUCAACCUCCAAUGUAUCCCACCACAUGAUGAUGCCUGAAGAGUCUUGGUUUUUUG [A50C C94U C123U] | 1.49
18 | GACCAAUCUGCCCUCAGAGCUCGAGAACAUCUUCGGAUGCAGAGGAGGCCGGCUUCGGUGGCGCGAUAGCGCCUACGUCCUCAACCUCCAAUGCAUCCCACCACAUGAUGAUGCCUGAAGAGCCUUGGUUUUUUG [A50C A74U] | -1.45
19 | GACCAAUCUGCCCUCAGAGCUCGAGAACAUCUUCGGAUGCAGAGGAGGCCGGCUUCGGUGGCGCGAUAGCGCCAAUGUCCUCAACCUUCAAUGCAUCCCACCACAUGAUGAUGCCUGAAGAGCCUUGGUUUUUUG [A50C C76U C88U] | -1.73
20 | GACCAAUCUGCCCUCAGAGCUCGAGAACAUCUUCGGAUGCAGAGGAGGCCGGCUUCGGUGGCGCGAUAGCGCCAACGUCCUCAACCUCCAAUGCAUCCCAACACAUGAUGAUGCCUGAAGAGCCUUGGUUUUUUG [A50C C101A] | -1.83
21 | GACCAAUCUGCCCUCAGAGCUCGAGAACAUCUUCGGAUGCAGAGGAGGCCGGCUUCGGUGGCGCGAUAGUGCCAACGUCCUCAACCUCCAAUGCAUCCCACCACAUGAUGAUGCCGAAAGAGCCUUGGUUUUUUG [A50C C70U U116G G117A] | -4.23
